The record followed here is article PMC4878091 (The Journal of Cell Biology, 2016).

The target of the assay is recombinant collagen IV α2 monomer (α2-84/α2-CB3). Nature of the assay: SEC. (SEC sorts molecules by how far they enter the pores of the column.)

B1: recombinant collagen IV α1 monomer (α1-84/α1-CB3) (domain or fragment)
chain: not shown
A word on the stoichiometry N: it is the number of molecules, sites or subunits per partner or assembly. Take B1: the “stoichiometry N” value stood at 2.
